Laboratory results: patent US20200369765A1 (INNATE PHARMA, published 2020)

T1: Human Siglec-5 (human, UniProt O15389 17-551)
T1 construct: Expressed on transfected CHO cells; also called HuSiglec-5
T1 sequence: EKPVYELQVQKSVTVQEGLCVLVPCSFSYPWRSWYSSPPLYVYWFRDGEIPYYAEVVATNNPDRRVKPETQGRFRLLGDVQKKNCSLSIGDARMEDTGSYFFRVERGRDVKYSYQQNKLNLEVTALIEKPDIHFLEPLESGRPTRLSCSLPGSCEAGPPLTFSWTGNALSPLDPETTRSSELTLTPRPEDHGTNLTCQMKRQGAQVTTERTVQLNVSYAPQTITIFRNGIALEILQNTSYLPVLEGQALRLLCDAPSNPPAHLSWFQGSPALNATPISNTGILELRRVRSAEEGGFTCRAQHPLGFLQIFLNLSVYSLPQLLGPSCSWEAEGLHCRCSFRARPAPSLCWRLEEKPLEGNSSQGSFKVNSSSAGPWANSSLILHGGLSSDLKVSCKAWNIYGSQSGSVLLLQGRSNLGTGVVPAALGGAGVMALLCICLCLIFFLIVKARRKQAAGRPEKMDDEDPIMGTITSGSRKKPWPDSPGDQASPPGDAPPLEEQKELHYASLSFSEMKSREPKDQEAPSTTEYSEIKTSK

T2: Human Siglec-10 (human, UniProt Q96LC7 17-697)
T2 construct: Expressed on transfected CHO cells; also called HuSiglec-10
T2 sequence: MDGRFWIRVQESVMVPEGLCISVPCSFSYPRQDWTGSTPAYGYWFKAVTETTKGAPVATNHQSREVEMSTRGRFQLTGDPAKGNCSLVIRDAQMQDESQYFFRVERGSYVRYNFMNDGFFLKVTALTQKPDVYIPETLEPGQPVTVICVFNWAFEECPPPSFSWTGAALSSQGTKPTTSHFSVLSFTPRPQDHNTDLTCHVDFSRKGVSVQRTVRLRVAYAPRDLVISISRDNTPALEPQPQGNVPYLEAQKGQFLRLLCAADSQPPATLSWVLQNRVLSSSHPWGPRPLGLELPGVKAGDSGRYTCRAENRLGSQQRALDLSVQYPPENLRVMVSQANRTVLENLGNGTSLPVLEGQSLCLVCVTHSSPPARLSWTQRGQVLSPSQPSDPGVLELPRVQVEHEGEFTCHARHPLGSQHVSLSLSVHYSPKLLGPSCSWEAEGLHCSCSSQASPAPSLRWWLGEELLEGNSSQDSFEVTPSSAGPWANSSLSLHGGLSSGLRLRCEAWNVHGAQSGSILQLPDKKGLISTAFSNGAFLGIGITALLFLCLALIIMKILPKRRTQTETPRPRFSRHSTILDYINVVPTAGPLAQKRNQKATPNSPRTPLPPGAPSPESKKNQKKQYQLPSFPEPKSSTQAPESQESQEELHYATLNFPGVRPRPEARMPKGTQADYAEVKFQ

T3: Human Siglec-11 (human, UniProt Q96RL6 29-698)
T3 construct: Expressed on transfected CHO cells; also called HuSiglec-11
T3 sequence: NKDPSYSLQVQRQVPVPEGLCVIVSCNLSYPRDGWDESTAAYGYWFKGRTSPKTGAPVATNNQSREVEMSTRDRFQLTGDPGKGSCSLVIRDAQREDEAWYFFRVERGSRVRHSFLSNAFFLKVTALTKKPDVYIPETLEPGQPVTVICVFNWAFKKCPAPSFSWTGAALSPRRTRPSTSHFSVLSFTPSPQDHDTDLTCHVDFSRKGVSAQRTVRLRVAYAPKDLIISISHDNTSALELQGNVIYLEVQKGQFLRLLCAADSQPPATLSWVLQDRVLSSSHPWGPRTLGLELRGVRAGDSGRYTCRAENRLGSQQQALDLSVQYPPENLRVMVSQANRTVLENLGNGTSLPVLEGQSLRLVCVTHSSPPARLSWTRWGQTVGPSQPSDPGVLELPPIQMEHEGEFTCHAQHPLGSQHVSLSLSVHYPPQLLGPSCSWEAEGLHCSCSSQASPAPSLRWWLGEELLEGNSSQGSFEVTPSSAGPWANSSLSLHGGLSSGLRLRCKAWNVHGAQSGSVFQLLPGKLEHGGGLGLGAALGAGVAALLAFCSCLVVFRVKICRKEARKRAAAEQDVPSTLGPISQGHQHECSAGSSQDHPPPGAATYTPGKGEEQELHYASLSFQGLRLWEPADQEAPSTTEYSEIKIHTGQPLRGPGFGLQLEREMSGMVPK

B1: mAbC (antibody, human IgG1, V domains shown)
VH: QIQLVQSGPELKKPGETVKISCKASGYTFTNYEMNWVKEAPGKGLKWMGWINTYTGESTYADDFKGRFAFSLETSASTVYLQINNLKDEDVATYFCVRDDYGRSYGFAYWGQGTLVTVSA
VL: NIVLTQSPASLTVSLGQRANISCRASESVDSYGNSFMHWYQQKPGQPPKLLIYLASKLESGVPARFSGSGSRTDFTLTIDPVETDDAATYYCHQNNEDPPWTFGGGTKLEIK
B2: mAb5 (antibody, human IgG1, V domains shown)
VH: EIQLQQSGPELEKPGASVKISCKASGYSFSDYNMNWVKQSNGKSLEWIGNIDPYYGATSYNQRFKGKATLTVDKSSSTAYMQLKSLTSEDSAVYYCARGDSLFAYWGHGTLVTVSA
VL: DIVMTQSQEFMSTSLGDRVSVTCKASQNVGTNVAWYQQKPGQSPKALLYSASSRYSGVPDRFTGSGSGTDFTLTISNVQSEDLAEYFCQQYITYPYTFGGGTKLEIK
B3: mAb6 (antibody, human IgG1, V domains shown)
VH: EIQLQQSGPELEKPGASVKISCKASGYSFSDYNMNWVKQSNGKSLEWIGNIDPYYGATSYNQRFKGKATLTVDKSSSTAYMQLKSLTSEDSAVYYCARGDSLFAYWGQGTLVTVSA
VL: DIVMTQSQEFMSTSLGDRVSVTCKASQNVGTNVAWYQQKPGQSPKALLYSASSRYSGVPDRFTGSGSGTDFTLTINNMQSEDLAEYFCQQYITYPYTFGGGTKLEIK
B4: mAbA (antibody, human IgG1, V domains shown)
VH: QVQLQQPGAELVKPGSPVKLSCKASYFTFTSYWMHWVRQRPGQGLEWIGEINPSNGHTNYNEKFESKATLTVDRSSSTAYMQLSSLTSEDSAVFYCANGVESYDFDDALDYWGQGTSVTVSS
VL: DIQMTQTTSSLSASLGDRVTISCRASQDINNYLNWYQQKPDGTIKLLIYYTSRLHSGVPSRFSGSGSGTDYSLTINNLEQEDIATYFCQQGNTLPFTFGGGTKLEIK
B5: mAb4 (antibody, human IgG1, V domains shown)
VH: DVQLVESGGDLVKPGGSLKLSCAASGFAFSSYDMSWVRQSPEKRLEWIAHIGSGGGNIYYPDTVKGRFTISRDNAKNTLYLQMRSLKSEDTAMYYCARLIFTTGFYGMDYWGQGTSVTVSS
VL: DIQMTQTTSSLSASLGDRVTISCRASQDISSYLNWYQQKPDGTIKLLIYYTSRLHSGVPSRFSGSGSGTDYSLTISNLDQDDIATYFCQQGNALPWTFGGGTKLEIK
B6: mAbB (antibody, human IgG1, V domains shown)
VH: QVQLQQPGAELVKPGASVKLSCKASVYTFTSYWMHWVKQRPGQGLEWIGEINPSNGHTNYNEKFKTKAKLTVDKSSSTAYMQLSSLTSEDSAVYFCANGVETYDFDDAMDYWGQGTSVTVSS
VL: DIQMTQTTSSLSASLGDRVTISCRASQDINNYLNWYQQKPDGTVKLLIYFTSRLHSGVPSRFSGSGSGTDYSLTISNLEQEDIATYFCQQGDTFPFTFGGGTKLEIK
B7: mAbD (antibody, human IgG1, V domains shown)
VH: QIQLVQSGPELKKPGETVKISCKASGYTFTDYSMHWVKQAPGKGLKWMGWIITETGEPTYADDFRGRFAFSLETSANTAYLQINNLKNEDTATYFCARDFDGYWGQGTTLTVSS
VL: DILMTQSPASLSASVGETVTITCRASENIYSYLAWYQQKRGKSPQFLVYNAKTLTEGVPSRFRGSGSGTQFSLKINSLQPEDFGTYYCQHHYGFPWTFGGGTKLEIK

How the values were obtained:
Human Siglec-3 = molecular target: T4, Human Siglec-3 (human, UniProt P20138 18-364); assay: flow cytometry, CHO transfectants
T4 construct: Expressed on transfected CHO cells; also called HuSiglec-3; CD33
T4 sequence (P20138 18-364 R69G): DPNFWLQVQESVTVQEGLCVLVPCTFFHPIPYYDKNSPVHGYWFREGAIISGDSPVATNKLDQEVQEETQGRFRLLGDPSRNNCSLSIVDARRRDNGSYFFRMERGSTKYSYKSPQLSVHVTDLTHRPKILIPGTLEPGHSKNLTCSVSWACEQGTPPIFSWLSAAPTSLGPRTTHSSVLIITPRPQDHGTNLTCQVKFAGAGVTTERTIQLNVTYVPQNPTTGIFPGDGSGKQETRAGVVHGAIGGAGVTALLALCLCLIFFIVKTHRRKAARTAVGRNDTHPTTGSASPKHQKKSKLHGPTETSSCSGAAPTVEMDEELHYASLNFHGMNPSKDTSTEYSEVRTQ

Human Siglec-5 = molecular target: T1, Human Siglec-5; assay: flow cytometry, CHO transfectants
Human Siglec-6 = molecular target: T5, Human Siglec-6 (human, UniProt O43699 27-453); assay: flow cytometry, CHO transfectants
T5 construct: Expressed on transfected CHO cells; also called HuSiglec-6
T5 sequence (O43699 other isoform, or with tags, fused parts or gaps): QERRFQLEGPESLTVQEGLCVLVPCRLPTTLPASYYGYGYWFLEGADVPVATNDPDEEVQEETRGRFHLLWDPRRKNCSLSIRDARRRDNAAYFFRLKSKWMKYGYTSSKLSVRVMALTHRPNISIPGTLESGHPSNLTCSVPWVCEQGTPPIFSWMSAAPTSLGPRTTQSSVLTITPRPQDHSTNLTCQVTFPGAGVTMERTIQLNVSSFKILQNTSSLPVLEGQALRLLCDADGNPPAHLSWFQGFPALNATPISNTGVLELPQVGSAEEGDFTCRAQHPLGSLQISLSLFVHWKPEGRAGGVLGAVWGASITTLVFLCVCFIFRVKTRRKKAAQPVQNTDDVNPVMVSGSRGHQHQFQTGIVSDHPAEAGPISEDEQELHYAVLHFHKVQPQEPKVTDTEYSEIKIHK

Human Siglec-8 = molecular target: T6, Human Siglec-8 (human, UniProt Q9NYZ4 17-499); assay: flow cytometry, CHO transfectants
T6 construct: Expressed on transfected CHO cells; also called HuSiglec-8
T6 sequence (Q9NYZ4 17-499): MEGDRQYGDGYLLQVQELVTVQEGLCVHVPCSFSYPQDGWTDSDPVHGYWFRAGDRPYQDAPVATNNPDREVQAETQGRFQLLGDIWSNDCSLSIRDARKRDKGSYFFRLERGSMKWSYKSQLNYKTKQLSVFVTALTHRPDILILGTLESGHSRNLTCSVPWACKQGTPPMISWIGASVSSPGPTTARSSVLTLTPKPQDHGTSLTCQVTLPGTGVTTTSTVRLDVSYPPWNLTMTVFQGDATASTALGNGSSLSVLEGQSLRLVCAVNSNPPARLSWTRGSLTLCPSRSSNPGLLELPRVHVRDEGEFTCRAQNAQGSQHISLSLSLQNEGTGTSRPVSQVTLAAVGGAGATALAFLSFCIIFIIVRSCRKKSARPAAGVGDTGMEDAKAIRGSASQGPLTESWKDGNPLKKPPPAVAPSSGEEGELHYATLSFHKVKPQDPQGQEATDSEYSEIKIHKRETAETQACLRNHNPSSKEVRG

Human Siglec-10 = molecular target: T2, Human Siglec-10; assay: flow cytometry, CHO transfectants
Human Siglec-11 = molecular target: T3, Human Siglec-11; assay: flow cytometry, CHO transfectants
Human Siglec-12 = molecular target: T7, Human Siglec-12 (human, UniProt Q96PQ1 19-595); assay: flow cytometry, CHO transfectants
T7 construct: Expressed on transfected CHO cells; also called HuSiglec-12
T7 sequence (Q96PQ1 19-595): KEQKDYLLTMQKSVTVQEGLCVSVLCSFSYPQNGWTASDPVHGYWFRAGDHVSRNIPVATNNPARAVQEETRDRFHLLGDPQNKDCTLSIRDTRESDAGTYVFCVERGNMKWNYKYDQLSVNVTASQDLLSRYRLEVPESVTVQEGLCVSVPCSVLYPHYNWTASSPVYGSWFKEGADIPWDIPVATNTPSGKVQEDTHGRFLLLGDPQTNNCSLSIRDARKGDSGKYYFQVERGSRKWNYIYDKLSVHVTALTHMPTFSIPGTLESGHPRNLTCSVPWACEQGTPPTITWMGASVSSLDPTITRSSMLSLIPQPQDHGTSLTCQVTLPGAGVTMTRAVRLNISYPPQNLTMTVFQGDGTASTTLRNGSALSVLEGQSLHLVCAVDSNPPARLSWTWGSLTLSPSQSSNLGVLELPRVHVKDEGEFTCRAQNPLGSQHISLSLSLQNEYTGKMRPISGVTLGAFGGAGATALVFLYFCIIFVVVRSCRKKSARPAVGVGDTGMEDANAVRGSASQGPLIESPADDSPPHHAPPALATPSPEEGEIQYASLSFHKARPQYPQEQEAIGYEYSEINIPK

Human Siglec-9 mutant M2 = molecular target: T8, Human Siglec-9 mutant M2 (human, UniProt Q9Y336 18-463); assay: flow cytometry, HEK293T transfectants
T8 construct: Expressed on HEK293T cells; also called Mutant 2

Human Siglec-9 mutant M3 = molecular target: T9, Human Siglec-9 mutant M3 (human, UniProt Q9Y336 18-463); assay: flow cytometry, HEK293T transfectants
T9 construct: Expressed on HEK293T cells; also called Mutant 3
T9 sequence (Q9Y336 other isoform, or with tags, fused parts or gaps mutant): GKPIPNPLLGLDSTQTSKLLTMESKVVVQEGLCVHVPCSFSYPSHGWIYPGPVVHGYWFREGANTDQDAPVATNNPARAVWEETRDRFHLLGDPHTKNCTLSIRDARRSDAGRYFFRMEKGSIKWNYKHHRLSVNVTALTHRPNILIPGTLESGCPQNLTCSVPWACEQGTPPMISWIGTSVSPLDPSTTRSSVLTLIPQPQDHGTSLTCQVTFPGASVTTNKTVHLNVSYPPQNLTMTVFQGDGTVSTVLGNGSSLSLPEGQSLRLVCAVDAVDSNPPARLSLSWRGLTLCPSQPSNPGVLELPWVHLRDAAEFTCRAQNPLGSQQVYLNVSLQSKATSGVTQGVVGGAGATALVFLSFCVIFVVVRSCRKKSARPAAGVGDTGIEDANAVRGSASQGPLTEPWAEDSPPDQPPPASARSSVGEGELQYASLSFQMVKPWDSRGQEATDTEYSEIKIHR

Human Siglec-9 mutant M5 = molecular target: T10, Human Siglec-9 mutant M5 (human, UniProt Q9Y336 18-463); assay: flow cytometry, HEK293T transfectants
T10 construct: Expressed on HEK293T cells; also called Mutant 5

Human Siglec-9 mutant M7 = molecular target: T11, Human Siglec-9 mutant M7 (human, UniProt Q9Y336 18-463); assay: flow cytometry, HEK293T transfectants
T11 construct: Expressed on HEK293T cells; also called Mutant 7
T11 sequence (Q9Y336 other isoform, or with tags, fused parts or gaps mutant): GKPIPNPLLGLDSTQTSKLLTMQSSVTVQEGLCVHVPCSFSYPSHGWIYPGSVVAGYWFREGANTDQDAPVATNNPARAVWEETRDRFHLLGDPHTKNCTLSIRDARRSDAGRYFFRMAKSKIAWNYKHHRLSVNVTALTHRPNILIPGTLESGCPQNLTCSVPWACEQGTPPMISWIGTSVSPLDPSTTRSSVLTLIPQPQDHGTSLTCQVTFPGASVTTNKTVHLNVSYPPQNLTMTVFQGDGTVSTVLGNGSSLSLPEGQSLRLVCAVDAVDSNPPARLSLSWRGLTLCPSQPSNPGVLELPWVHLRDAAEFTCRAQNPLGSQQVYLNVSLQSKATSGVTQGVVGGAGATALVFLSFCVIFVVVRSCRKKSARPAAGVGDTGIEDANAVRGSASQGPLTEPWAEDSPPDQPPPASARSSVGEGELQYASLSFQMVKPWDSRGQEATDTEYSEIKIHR

[1] = molecular target: T12, Human Siglec-9 mutant M14 (human, UniProt Q9Y336 18-463); assay: flow cytometry, HEK293T transfectants
T12 construct: Expressed on HEK293T cells; also called Mutant 14
T12 sequence (Q9Y336 other isoform, or with tags, fused parts or gaps mutant): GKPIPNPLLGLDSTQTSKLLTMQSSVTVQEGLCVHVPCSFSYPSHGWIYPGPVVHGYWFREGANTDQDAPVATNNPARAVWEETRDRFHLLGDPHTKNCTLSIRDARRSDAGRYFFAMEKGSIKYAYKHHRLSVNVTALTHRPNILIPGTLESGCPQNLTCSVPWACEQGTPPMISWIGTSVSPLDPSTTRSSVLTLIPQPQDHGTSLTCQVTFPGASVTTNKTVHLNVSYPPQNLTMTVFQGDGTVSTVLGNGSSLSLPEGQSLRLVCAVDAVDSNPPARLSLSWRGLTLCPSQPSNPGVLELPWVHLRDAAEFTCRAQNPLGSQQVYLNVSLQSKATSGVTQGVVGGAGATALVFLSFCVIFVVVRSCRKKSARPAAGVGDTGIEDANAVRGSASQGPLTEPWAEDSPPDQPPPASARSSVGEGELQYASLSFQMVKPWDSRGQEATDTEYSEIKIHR

[2] = molecular target: T13, Human Siglec-9 mutant M15 (human, UniProt Q9Y336 18-463); assay: flow cytometry, HEK293T transfectants
T13 construct: Expressed on HEK293T cells; also called Mutant 15
T13 sequence (Q9Y336 other isoform, or with tags, fused parts or gaps mutant): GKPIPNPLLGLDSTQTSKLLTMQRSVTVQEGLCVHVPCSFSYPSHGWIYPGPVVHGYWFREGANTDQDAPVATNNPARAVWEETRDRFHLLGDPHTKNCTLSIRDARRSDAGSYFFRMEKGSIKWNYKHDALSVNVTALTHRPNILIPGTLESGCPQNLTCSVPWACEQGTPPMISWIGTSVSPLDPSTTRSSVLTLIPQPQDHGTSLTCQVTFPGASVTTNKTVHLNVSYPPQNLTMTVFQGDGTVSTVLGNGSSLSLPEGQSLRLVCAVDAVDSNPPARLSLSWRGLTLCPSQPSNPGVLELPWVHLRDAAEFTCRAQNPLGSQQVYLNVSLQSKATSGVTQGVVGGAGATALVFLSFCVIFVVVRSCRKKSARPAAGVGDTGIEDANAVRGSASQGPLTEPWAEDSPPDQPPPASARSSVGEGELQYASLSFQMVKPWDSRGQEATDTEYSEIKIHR

Binder	binding result (Human Siglec-3)	binding result (Human Siglec-5)	binding result (Human Siglec-6)	binding result (Human Siglec-8)	binding result (Human Siglec-10)	binding result (Human Siglec-11)	binding result (Human Siglec-12)	binding result (Human Siglec-9 mutant M2)	binding result (Human Siglec-9 mutant M3)	binding result (Human Siglec-9 mutant M5)	binding result (Human Siglec-9 mutant M7)	binding result [1]	binding result [2]
B1	no binding	no binding	no binding	no binding	no binding	no binding	no binding	binds	binds	binds	binds	binds	binds
B2	no binding	no binding	no binding	no binding	no binding	no binding	no binding						
B3	no binding	no binding	no binding	no binding	no binding	no binding	no binding						
B4	no binding	no binding	no binding	no binding	no binding	no binding	no binding	binds	binds	binds	binds		binds
B5	no binding	no binding	no binding	no binding	no binding	no binding	no binding						
B6	no binding	no binding	no binding	no binding	no binding	no binding	no binding	binds	binds	binds	binds		binds
B7	no binding	no binding	no binding	no binding	no binding	no binding	no binding	binds	binds	binds		binds	binds
